Experimental data reported in patent CN101228187A.

What was measured:
[1] = biological target: T1, FRHSVV peptide, common epitope of mutant p53 (biotinylated) (human); experiment: BIAcore (SPR), biotinylated peptide on streptavidin SA chip, scFv injected, 1:1 Langmuir model
[2] = biological target: T1, FRHSVV peptide, common epitope of …; experiment: BIAcore (SPR), data not shown

Row | Binder | Kd [1] [nM] | Kd [2] [nM]
1 | F2 scFv (scFv) scFv: VQLLESGGGLVQPGGSLRLSCAASGFTFSGYWMHWVRQAPGKGLEWVSEISGSGDSTHYGDSVKGRFTISRDNSKNTLYLQMNSLRAEDTAVYYCARGRNGSLDYWGQGTLVTVSSGSAGGGGSGGGGSGGGGSDIVLTQPPSASGTPGQRVTISCSGTSSNIGADYDVHWYQQLPGKAPKLLIYDNNKRPSGVSDRFSGSKSGTSASLAISGLRSEDEADYYCAAWDSSLSSVVFGGGTQLTV | 11 | –
2 | A6 scFv (scFv) scFv: VQLLESGGGLVQPGGSPRLSCAASGFTFSGYWMHWVRQAPGKGLEWVSEISGSGDSTHYGDSVKGRFTISRDNSKNTLYLQMNSLRAEDTAVYYCARGRNGSLDYWGQGTLVTVSSGSAGGGGSGGGGSGGGGSDIVLTQPPSASGTPGQRVTISCTGGRFNIGDYAVNWYQQLPGKAPKLLIYDNDRRPSGVSDRFSGSKSGTSASLAISGLRSEDEADYYCAAWDDSLDGLVFGGGTQLTV | – | 23
